Where a chain is given by its changes, count along the chain named.

In test [1] the target is SP70 peptide (amino acid residues 208 to 222 of EV71 VP1) (UniProt Q66478). Description: ELISA. As to conditions: read off a plot. Background: An ELISA detects its analyte on a solid surface through an enzyme-linked reagent.
Test [2] concerns the target EV71 virus-like particle (VLP). Kind of test: ELISA. Particulars: read off a plot.
Test [3] concerns the target EV71 mature virion (F-particle), inactivated. Description: ELISA. Particulars: read off a plot.
For test [4], the target named is EV71 procapsid (E-particle), inactivated. Description: ELISA. Particulars: read off a plot.
Test [5] deals with SCARB2-Fc (UniProt Q14108). Description: pull-down with SCARB2-Fc and anti-human Fc IgG conjugated beads, quantified by qRT-PCR. As to conditions: 4°C; parent: est. 100; read off a plot.
The target of test [6] is T1, EV71 mature virion (F-particle), inactivated (Enterovirus A71, strain of the …).
T1 construct: VP1 of enterovirus 71, cut product of the polyprotein; PDB 3VBS is the crystal structure fitted into the map and may be of another strain; numbers count on: the mature VP1 chain; VP2 of enterovirus 71, cut product of VP0 of the polyprotein; numbers count on: the mature VP2 chain; VP3 of enterovirus 71, cut product of the polyprotein; numbers count on: the mature VP3 chain; VP4 of enterovirus 71, …
T1 chain 1: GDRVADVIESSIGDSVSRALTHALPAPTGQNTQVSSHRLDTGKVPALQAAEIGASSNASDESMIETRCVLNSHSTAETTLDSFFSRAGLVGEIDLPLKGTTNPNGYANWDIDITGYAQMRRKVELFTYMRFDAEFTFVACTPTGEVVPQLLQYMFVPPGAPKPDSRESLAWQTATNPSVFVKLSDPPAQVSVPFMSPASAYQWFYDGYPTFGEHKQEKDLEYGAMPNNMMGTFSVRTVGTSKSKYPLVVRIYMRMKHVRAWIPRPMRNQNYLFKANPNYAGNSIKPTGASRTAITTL
T1 chain 2: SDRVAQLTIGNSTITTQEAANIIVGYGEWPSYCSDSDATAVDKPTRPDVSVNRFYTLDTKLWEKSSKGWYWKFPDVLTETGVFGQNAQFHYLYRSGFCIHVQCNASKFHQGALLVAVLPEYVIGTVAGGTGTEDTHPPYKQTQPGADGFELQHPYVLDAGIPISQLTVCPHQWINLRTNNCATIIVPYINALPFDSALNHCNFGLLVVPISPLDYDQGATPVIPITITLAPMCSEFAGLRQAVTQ
T1 chain 3: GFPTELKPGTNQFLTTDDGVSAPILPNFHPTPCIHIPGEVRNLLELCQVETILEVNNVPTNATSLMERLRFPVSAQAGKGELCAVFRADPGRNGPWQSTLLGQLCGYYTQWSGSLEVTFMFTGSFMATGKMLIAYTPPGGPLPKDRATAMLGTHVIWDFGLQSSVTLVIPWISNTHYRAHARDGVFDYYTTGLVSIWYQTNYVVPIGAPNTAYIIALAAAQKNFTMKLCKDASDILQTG
Kind of test: BLI; Octet RED 96; biotin-labelled inactivated F-particles on streptavidin tips; D5 IgG or Fab at 40 to 0.0128 μg/ml; kinetics buffer (PBS, 0.1% BSA, 0.02% Tween-20), room temperature; called avidities. Particulars: both partners purified.

Test [7] concerns the target EV71/G082 wild-type virus (enterovirus 71 strain EV71/G082).
For test [8] the target is unchanged. The source holds these as a separate data set.
Test [9] has the same target. The source holds these as a separate data set.
Test [10] concerns the target T2, SP70 peptide (amino acid residues 208 to 222 of EV71 VP1) (Enterovirus 71; stretch identical among …).
T2 construct: VP1 of enterovirus 71, residues 208 to 222, corresponding to the GH-loop; Q66478 is strain BrCr; numbers count on: the mature VP1 chain
T2 chain: YPTFGEHKQEKDLEY
Description: ELISA; plates coated with 20 ng/well E-particle, F-particle or VLP or 100 ng/well SP70 peptide; serially diluted scFv 2 h at 37°C; detected with HRP anti-His antibody. As to conditions: both partners purified.

Setting [11] is: 6.25 ng/well, parent: est. 0.83.
The mark [12] stands for this setting: 6.25 ng/well, parent: est. 0.52.

Sequence of SCARB2-Fc (Q14108 whole entry): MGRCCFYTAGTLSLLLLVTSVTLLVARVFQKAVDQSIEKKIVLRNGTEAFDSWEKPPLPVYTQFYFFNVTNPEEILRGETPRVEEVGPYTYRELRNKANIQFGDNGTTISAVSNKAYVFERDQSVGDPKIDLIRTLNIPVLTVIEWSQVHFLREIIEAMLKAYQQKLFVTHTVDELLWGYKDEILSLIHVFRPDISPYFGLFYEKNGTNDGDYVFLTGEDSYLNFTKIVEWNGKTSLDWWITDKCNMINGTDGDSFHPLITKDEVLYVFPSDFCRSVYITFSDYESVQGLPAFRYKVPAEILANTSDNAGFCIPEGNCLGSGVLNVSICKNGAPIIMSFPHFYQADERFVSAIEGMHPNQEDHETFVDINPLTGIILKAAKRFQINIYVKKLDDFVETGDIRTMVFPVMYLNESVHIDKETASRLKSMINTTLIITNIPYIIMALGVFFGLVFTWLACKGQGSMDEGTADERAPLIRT

On to “D5 wild-type single-chain variable fragment (scFv-WT) F103A”, for which the response in [1] (setting [11]) was 0.3 OD450nm; in test [1] (25 ng/well, parent: est. 2.0), 0.95 OD450nm; in test [1] (100 ng/well, parent: est. 3.0), 2.2 OD450nm; in test [1] (400 ng/well, parent: est. 3.1), 2.7 OD450nm; in test [2] (6.25 ng/well, parent: est. 1.3), 0.48 OD450nm; in test [2] (25 ng/well, parent: est. 1.6), 1.1 OD450nm. The response was found to be 1.6 OD450nm in test [2] (100 ng/well, parent: est. 1.8); 1.7 OD450nm in test [2] (400 ng/well, parent: est. 1.8); 0.18 OD450nm in test [3] (setting [12]); 0.42 OD450nm in [3] (25 ng/well, parent: est. 0.76); 0.7 OD450nm in test [3] (100 ng/well, parent: est. 0.88); 0.86 OD450nm in [3] (400 ng/well, parent: est. 1.0). Moreover, the response is 0.82 OD450nm in test [4] (6.25 ng/well, parent: est. 1.8); 1.6 OD450nm in test [4] (25 ng/well, parent: est. 2.1); 2.2 OD450nm in test [4] (100 ng/well, parent: est. 2.2); 2.2 OD450nm in [4] (400 ng/well, parent: est. 2.1).

Turning to “D5 wild-type single-chain variable fragment (scFv-WT) W102A”, the response in test [1] (400 ng/well, parent: est. 3.1) was found to be 0.05 OD450nm; in [2] (400 ng/well, parent: est. 1.8) it was 0.19 OD450nm; in test [3] (400 ng/well, parent: est. 1.0), 0.1 OD450nm; in [4] (400 ng/well, parent: est. 2.1) it was 0.3 OD450nm.

“D5 wild-type single-chain variable fragment (scFv-WT) Y101A”: the response stood at 0.05 OD450nm in [1] (400 ng/well, parent: est. 3.1); 0.15 OD450nm in test [3] (400 ng/well, parent: est. 1.0); 0.3 OD450nm in test [4] (400 ng/well, parent: est. 2.1).

“D5 wild-type single-chain variable fragment (scFv-WT) N100A”: the response is 0.43 OD450nm in [1] (setting [11]); 1.3 OD450nm in test [1] (25 ng/well, parent: est. 2.0); 2.7 OD450nm in [1] (100 ng/well, parent: est. 3.0); 3 OD450nm in [1] (400 ng/well, parent: est. 3.1); 1.1 OD450nm in test [2] (6.25 ng/well, parent: est. 1.3); 1.4 OD450nm in [2] (25 ng/well, parent: est. 1.6). Further, the response was 1.8 OD450nm in [2] (100 ng/well, parent: est. 1.8); 1.8 OD450nm in test [2] (400 ng/well, parent: est. 1.8); 0.43 OD450nm in [3] (setting [12]); 0.67 OD450nm in [3] (25 ng/well, parent: est. 0.76); 0.9 OD450nm in test [3] (100 ng/well, parent: est. 0.88); 1 OD450nm in [3] (400 ng/well, parent: est. 1.0). Also, the response in test [4] (6.25 ng/well, parent: est. 1.8) was found to be 1.7 OD450nm; in [4] (25 ng/well, parent: est. 2.1), 2.1 OD450nm; in test [4] (100 ng/well, parent: est. 2.2), 2.4 OD450nm; in [4] (400 ng/well, parent: est. 2.1), 2.2 OD450nm.

EV71/G082 wild-type virus K218T: in test [5], the percent of parent turned out to be 84%.

As to EV71/G082 wild-type virus K218E, the percent of parent in test [5] is 65%.

For “D5 wild-type single-chain variable fragment (scFv-WT) F105A”, the response in test [1] (400 ng/well, parent: est. 3.1) was determined as 0.05 OD450nm; in [2] (400 ng/well, parent: est. 1.8), 0.2 OD450nm; in test [3] (400 ng/well, parent: est. 1.0), 0.12 OD450nm; in [4] (400 ng/well, parent: est. 2.1) it was 0.43 OD450nm.

For the molecule “D5 wild-type single-chain variable fragment (scFv-WT) D104A”, the response worked out at 0.05 OD450nm in [1] (400 ng/well, parent: est. 3.1); 0.05 OD450nm in test [2] (400 ng/well, parent: est. 1.8); 0.09 OD450nm in test [3] (400 ng/well, parent: est. 1.0); 0.08 OD450nm in test [4] (400 ng/well, parent: est. 2.1).

B1: D5 intact IgG (antibody, V domains shown)
VH: EVQLQQSGAELVKPGASVKLSCTASGFNIKDTYIHWVKQRPEQGLEWIGKIDPANGNTKYDPKFQDKATITADTSSNTAYLQLSSLTSEDTAVYYCANSNYWFDFDYWGQGTTLTVSS
VL: DVLMTQTPLSLPVSLGDQASISCRSSQSIVHSNGNTYLEWYLQKPGQSPKLLIYKVSNRFSGVPDRFSGSGSGTDFTLKISRVEADDVGVYYCYQGSHVPYTFGGGTKLEIK
notes: variable region of the D5 heavy chain (VH, 1-118 aa); constant region of the mouse IgG heavy chain; variable region of the D5 light chain (VL, 1-113 aa); constant region of the mouse light chain; also called MAb D5; mAb D5; source: D5 hybridoma (mouse)
Usually Kd stands for the constant that tells how readily two partners part at equilibrium. The molecule B1 displayed a Kd in test [6] of 6 nM. In [7], this molecule registered an IC50 of neutralization (50% inhibition of cell death, MTT assay), EV71/G082 of 0.183 µg/mL and a Neutralization concentration (lowest antibody concentration that fully prevents CPE), EV71/G082 of 0.313 µg/mL. For the same molecule, the IC50 of neutralization of EV71 G082 on RD cells, post-attachment neutralization assay in [8] amounted to 10.1 nM. The molecule also yielded an IC50 of neutralization of EV71 G082 (100 TCID50) on RD cells, standard neutralization assay, MTT in [9] of 2.23 nM.

B2: D5 scFv-N100A (scFv, V domains shown)
VH: B1 VH with N100A
VL: B1 VL
notes: variable region of the D5 heavy chain (VH, 1-118 aa), as the VH of m3 with the stated change; 11-amino acid residue (GGGGS)2G linker; variable region of the D5 light chain (VL, 1-113 aa), as the VL of m3; Point mutant of m3 in the heavy chain CDR3; source: E. coli BL21, purified from the soluble fraction (Ni-NTA)
As for B2, the binding result in test [10] is given as “binds”.

B3: D5 Fab (Fab, V domains shown)
VH: B1 VH
VL: B1 VL
notes: variable region of the D5 heavy chain (VH, 1-118 aa), as the heavy chain of m1; constant part of the Fab heavy chain left by papain; variable region of the D5 light chain (VL, 1-113 aa), as the light chain of m1; constant region of the mouse light chain; also called Fab of D5; D5 Fab fragment; source: papain digestion of D5 IgG, purified (Hitrap Protein G, Sephacryl S-100)
As for B3, in test [6], the Kd came out at 15 nM. Moreover, the IC50 of neutralization of EV71 G082 on RD cells, post-attachment neutralization assay in [8] is 191 nM. The IC50 of neutralization of EV71 G082 (100 TCID50) on RD cells, standard neutralization assay, MTT in test [9] came out at 37.4 nM.

B4: D5 scFv-F103A (scFv, V domains shown)
VH: B1 VH with F103A
VL: B1 VL
notes: as for B2
On to B4, for which the binding result in test [10] is on record as “binds”.

B5: D5 wild-type single-chain variable fragment (scFv-WT) (scFv, V domains shown)
VH: B1 VH
VL: B1 VL
notes: variable region of the D5 heavy chain (VH, 1-118 aa); 11-amino acid residue (GGGGS)2G linker; variable region of the D5 light chain (VL, 1-113 aa); Cloned in pET28b; also called wild-type scFv; VH-(GGGGS)2G-VL; source: E. coli BL21, purified from the soluble fraction (Ni-NTA)
Regarding B5, the binding result in [10] is listed as “binds”.

Values taken from PMC4777393, “Structural Basis for Recognition of Human Enterovirus 71 by a Bivalent Broadly Neutralizing Monoclonal Antibody” (PLoS Pathogens, 2016).
